Measured values: US20250381293A1, “PEPTIDES AND MAGNETIC PARTICLE-PEPTIDE CONJUGATES FOR PREVENTION OR TREATMENT OF GLAUCOMA” (THE GOVERNORS OF THE UNIVERSITY OF ALBERTA, priority 2022, published 2025)

Assays:
hTM cells [1] = experiment: Live/dead cell viability assay on hTM monolayers; type: cell-based; details: free peptide solution, 1 mM; mean±1 SD, n≥3
Experimental: Primary human trabecular meshwork (hTM) cells were obtained from ScienCell Research Laboratories (Carlsbad, CA), and maintained in TMCM medium (ScienCell, no. 6591). Primary cell culture was passaged according to the manufacturer's instructions. Passage three cells were seeded on tissue culture plates coated with gelatin and media were refreshed every 2-3 days. These monolayer cultures were used in subsequent experiments upon reaching 95-100% confluency.
Cell viability was further assayed using LIVE/DEAD® viability/cytotoxicity kit (Molecular Probes). Monolayers of hTM cells were treated in triplicates with peptides alone in solution (1 mM) and in conjugation with MPs (100 μg). Cell viability was then assessed according to the manufacturer's protocol. The kit is based on calcein AM/ethidium homodimer-1 (EthD-1) system, where calcein AM detects cellular esterase activity of live cells and EthD-1 stains nuclei of dead cells. A similar live/dead assay was used to investigate the effect of MP-peptide conjugates on the viability of hTM cells in the presence of the rotating magnetic field. […] The viability of hTM cells was then assessed as described above. […] The cells were treated with the rotating magnetic field for 10 min and then analyzed using live/dead assay as described before. […]

hTM cells [2] = experiment: DNA fragmentation analysis (apoptosis); type: cell-based, human; details: free peptide solution, 24 hr (0.5 mM, elsewhere in the source)
Experimental: Effect of peptide-particle conjugates and peptide solutions on the induction of apoptotic DNA fragmentation was analyzed in hTM cells. […] Cells were recovered from wells using a cell scraper. DNA was isolated and purified using DNeasy blood and tissue kit (Qiagen). Extracted DNA molecules from control and treated hTM cells were subjected to 2% agarose gel electrophoresis and visualized by SYBR green staining.

XFS materials = experiment: Ex vivo targeting of Cy5-labeled phage-displayed peptides on exfoliative human lens capsules; type: binding; details: 1 hr, 37° C., human aqueous humor/BSS; fluorescence microscopy
Experimental: Amplified phages (1×10^11 pfu) were resuspended in 0.3 M NaHCO3 (pH 8.6) containing 10 μg Cy5 dye and incubated for 2 hr at room temperature in the dark. Subsequent to phage/fluorophore incubation, 40 μl of 10 mM lysine was added to interact with remaining free Cy5 dye molecules in the solution. The volume of the reaction mixture was subsequently brought up to 1 ml with PBS buffer, and the phages were purified with two rounds of 20% (w/v) polyethylene glycol-8000, 2.5 M NaCl precipitation. The labeled phages resuspended in BSS solution.
Fluorescently labeled phages carrying identified targeting peptides as well as wild-type phages without peptide-encoding inserts were incubated with exfoliative human lens capsules in a 100-μl solution containing equal volumes of human aqueous humor fluid and BSS solution. The incubation was allowed to continue for 1 hr at 37° C. After serially washing with BSST buffer (0.1, 0.3%), three times each, the lens capsules were mounted on microscope slides and were examined under an Olympus IX81 inverted fluorescence microscope (Olympus Corporation, Tokyo, Japan). The location of XFS materials on the surface of the lens capsule was confirmed in bright-field mode prior to fluorescence imaging.

Sequence | % of live cells (hTM cells [1]) | apoptotic chromosomal DNA fragmentation (hTM cells [2]) | binding of Cy5-labeled phages to XFS materials on lens capsule (XFS materials)
LPSYNLHPHVPP [p-LPS] | 99.12 ± 0.94% | chromosomal DNA remained intact | specific binding to XFS materials
IPLLNPGSMQLS [p-IPL] | 99.00 ± 0.37% | chromosomal DNA remained intact | specific binding to XFS materials
